Reference: patent EP4624486A1 (Guangdong Raynovent Biotech Co., Ltd., dated 2025)
Bridge positions count the residues as written; N and C are the ends. Square brackets hold non-standard residues; d marks the D form. Ends that are not written are not given here. αMeL = CC(C)C[C@](C)(N)C(=O)O; Aib = CC(C)(N)C(=O)O

T1: GIP receptor (GIPR) (UniProt P48546 22-466, limits assumed)
T1 sequence (looked up): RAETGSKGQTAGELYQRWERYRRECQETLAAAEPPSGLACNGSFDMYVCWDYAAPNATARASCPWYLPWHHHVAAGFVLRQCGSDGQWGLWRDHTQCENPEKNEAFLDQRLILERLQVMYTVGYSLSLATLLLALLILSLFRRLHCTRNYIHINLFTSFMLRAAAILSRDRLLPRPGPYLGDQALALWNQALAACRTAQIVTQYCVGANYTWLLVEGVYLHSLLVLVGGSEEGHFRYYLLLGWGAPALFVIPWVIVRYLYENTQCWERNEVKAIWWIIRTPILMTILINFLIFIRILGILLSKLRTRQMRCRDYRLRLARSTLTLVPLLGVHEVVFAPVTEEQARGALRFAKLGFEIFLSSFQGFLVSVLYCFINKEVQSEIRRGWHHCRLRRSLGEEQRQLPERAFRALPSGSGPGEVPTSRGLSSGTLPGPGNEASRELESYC


Assays:
Assay in all cases: cell-based or functional assay
[1] = molecular target: GCG receptor (GCGR) (UniProt P47871)
GCG receptor (GCGR) (UniProt P47871), sequence (P47871 26-477 limits assumed): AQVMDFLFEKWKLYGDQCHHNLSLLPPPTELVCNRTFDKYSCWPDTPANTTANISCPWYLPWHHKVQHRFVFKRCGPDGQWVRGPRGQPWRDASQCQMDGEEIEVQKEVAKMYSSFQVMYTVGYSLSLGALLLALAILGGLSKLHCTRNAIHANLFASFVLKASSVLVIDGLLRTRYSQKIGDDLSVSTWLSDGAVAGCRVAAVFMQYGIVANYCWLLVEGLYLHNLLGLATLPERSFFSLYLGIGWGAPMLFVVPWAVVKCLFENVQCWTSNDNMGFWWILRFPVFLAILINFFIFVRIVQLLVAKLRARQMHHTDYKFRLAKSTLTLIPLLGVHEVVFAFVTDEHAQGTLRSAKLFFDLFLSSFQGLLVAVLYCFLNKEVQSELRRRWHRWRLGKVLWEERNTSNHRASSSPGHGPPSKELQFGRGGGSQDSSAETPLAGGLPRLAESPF

[2] = molecular target: GIP receptor (GIPR) (UniProt P48546)
[3] = molecular target: GLP-1 receptor (GLP-1R) (UniProt P43220)
GLP-1 receptor (GLP-1R) (UniProt P43220), sequence (P43220 24-463 limits assumed): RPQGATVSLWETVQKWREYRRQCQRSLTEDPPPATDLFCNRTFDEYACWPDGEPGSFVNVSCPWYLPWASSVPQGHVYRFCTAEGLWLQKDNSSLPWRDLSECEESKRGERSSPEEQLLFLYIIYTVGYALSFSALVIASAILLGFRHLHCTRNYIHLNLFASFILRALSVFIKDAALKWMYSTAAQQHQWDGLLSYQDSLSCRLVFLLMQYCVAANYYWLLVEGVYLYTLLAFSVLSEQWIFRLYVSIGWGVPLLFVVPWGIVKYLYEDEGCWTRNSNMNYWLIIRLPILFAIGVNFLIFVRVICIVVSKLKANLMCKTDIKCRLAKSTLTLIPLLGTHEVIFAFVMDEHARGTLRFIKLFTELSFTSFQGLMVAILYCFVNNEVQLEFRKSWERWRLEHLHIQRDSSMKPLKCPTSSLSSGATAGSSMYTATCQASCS

[4] = molecular target: GLP-1 receptor (GLP-1R) (UniProt P43220 24-463, limits assumed)
[5] = molecular target: T1, GIP receptor (GIPR)
[6] = molecular target: GCG receptor (GCGR) (UniProt P47871 26-477, limits assumed)
GCG receptor (GCGR) (UniProt P47871 26-477, limits assumed), sequence (P47871 26-477 limits assumed): as the sequence (P47871 26-477 limits assumed) above

Molecule	GCG EC50 (nM); cAMP, agonistic activity [1] [nM]	GIP-1 EC50 (nM); cAMP, agonistic activity [2] [nM]	GLP-1 EC50 (nM); cAMP, agonistic activity [3] [nM]	GLP-1 EC50 (nM); cAMP, agonistic activity [4] [nM]	GIP-1 EC50 (nM); cAMP, agonistic activity [5] [nM]	GCG EC50 (nM); cAMP, agonistic activity [6] [nM]
LY3437943 (peptide)	0.031	0.001	0.014	–	–	–
Human GLP-1 (7-37) (from UniProt P01275 21-180) (ligand)	–	–	0.001	–	–	–
Y[Aib]QGTFTSDYSI[αMeL]KDKKAQ[Aib]AFIEYLLEGGPSSGAPPPS-NH2 (linker 14-17 via (2-2-oxoethyl)‑glycine, AEEA, Lys, γGlu, C20 diacid) [Example 52]	–	–	–	0.003	0.0001	0.025
Y[Aib]QGTFTSDYSI[αMeL]KDKKAQ[Aib]AFIEYLLKGGPSSGAPPPS-NH2 (bridge 14-17; not fully specified (bridges); also: stapled body (lipidated) structure only in drawing chem0263) [Example 54]	–	–	–	0.002	0.0004	0.02
